This note sets out measurements from the nanobody polyreactivity screen of Harvey et al. (2022).

The series is described as follows: yeast display, Sf9 membrane polyspecificity reagent, FACS + sequencing; frameworks hold sequencing errors. In outline: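 Polyreactivity labels are assigned by the sorting gate from which each nanobody was recovered. The gates were low and high (top ~1%), set on anti-HA fluorescence for expression and streptavidin fluorescence for reagent binding. Before sorting, galactose-induced (36–48 hours) yeast display cells were stained for 1 hour at 4 °C with 10% biotinylated, detergent-solubilized Sf9 membrane reagent.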
For the sequence “QVQLVESGGGLVQAGGSLRLSCAASGSTFLRYDMGWYRQAPGKDRELVAAINWSGGGTSYADSVKGRFTISRDNAKNTVYLQMNSLKPEDTEVYYCAAYFRYSYYWSEYWGQGTQVTVSS”, the “polyreactivity (PSR sort gate)” value is listed as “high polyreactivity”. The value for “QVQLVESGGGLVQAGGSLRLSCAASGSTFLRYTMGWYRQAPGTERELVAAISPSAGSTYYADSVKGRFTISRDNAKNSVYLQMNSLTPEDTAVYYCAAKRGSVSRPDYGANDESWGQGTQVTVSS” was “high polyreactivity”.

For the sequence “QVQLVESGGGLVQAGGSLRLSCAASGSTFLSNAMGWYRPAPGKERELVAGIDYNDGSTYYADSVKGRFTISRDNAKNTVYLQMNSLKPEDTAVYYCAARWVFRRYVIGMDYWGQGTQVTVSS”, the “polyreactivity (PSR sort gate)” value was “low polyreactivity”. The entry for “QVQLVESGGGLVQAGGSLRLSCAASGSTFLSYAMGWYIQAPGKEREFVAAIPSIVGSTYYADSVKGRFTISRDNAKNTVYLQMNSLKPEDTAVYYCATDSYPGLNPDFDYWGQGTQVTVSS” is “low polyreactivity”. Take “QVQLVESGGGLVQAGGSLRLSCAASGSTFLSYAMGWYRQAPGKERELVARITSSGGNTYYADSVKGRFTISRDNAKNTVYLQMNSLKPEDTAVYYCAVSLEDQQYIFDYWGQGTQVTVSS”: the “polyreactivity (PSR sort gate)” value is recorded as “low polyreactivity”. The entry for “QVQLVESGGGLVQAGGSLRLSCAASGSTFLTNVMGWYRQAPGKEREFVAAITANGGRTYYADSVKGRFTISRDNAKKTVYLKMNSQKPEDTAVYYAVETAWSYNSIYWFDYWGQGTQVTVSS” is “high polyreactivity”.

Turning to “QVQLVESGGGLVQAGGSLRLSCAASGSTFLTYAMGWYRQAPGKERELVASITSTGRTYADSVKGRFTISRDNAKNTVYLQMNSLKPEDTAVYYCNADVTAFRRSFLRKYYSYDSWGQGTQVTVSS”, the “polyreactivity (PSR sort gate)” value was “low polyreactivity”.

Take “QVQLVESGGGLVQAGGSLRLSCAASGSTFLVNAKGWYRQAPGKEWEFVAAITGNAGSTYYADSVKGRFTISRDNEKYTVYLQMNSLKPEDTAVYYCAAALPGYDGDYWGQGTQVTVSS”: the “polyreactivity (PSR sort gate)” value is recorded as “low polyreactivity”. The value for “QVQLVESGGGLVQAGGSLRLSCAASGSTFLVYALGWYRQAHGKEREFVAAISWSGGSTFYADSVKGRFTISRDNAKNTVYLQMNSLKPEDTAVYYCAARQAGYSGRKLYYWGQGTQVTVSS” was “low polyreactivity”. As to “QVQLVESGGGLVQAGGSLRLSCAASGSTFLVYARGWYRQAPGKERELVADITSRGGSTYYADSVKGRFTISRDNAKNTVYLQMNSLKPEDTAVYYCAALKRVVLFDYWGQGSQVTVSS”, the “polyreactivity (PSR sort gate)” value is reported as “low polyreactivity”. The entry for “QVQLVESGGGLVQAGGSLRLSCAASGSTFLYNAMGWYRQAPGKERELVATISSGGGSTNYADSVKGRFTISRDNAKNTVYLQMNSLKPEDTAVYYCAVEGYDSYKDDYWGQGTQVTVSS” is “low polyreactivity”. The value for “QVQLVESGGGLVQAGGSLRLSCAASGSTFLYNAMRWYRQAPGKEREFVAAISGSGGTTYYADSVKGRFTISRDNAKNTFYLQMNSLKPEDTAVYYCAVSQSWYWYYASDYWGQGTQVTVSS” was “low polyreactivity”.

Take “QVQLVESGGGLVQAGGSLRLSCAASGSTFLYYAMGWYRQAPGKERELVAAISWSGGSTYYADSVKGRFTISRDNAKNTVYLQMKSLKPEDTAVYYCAASSPWEQSNDQFYYWGQGTQVTVSS”: the “polyreactivity (PSR sort gate)” value is recorded as “low polyreactivity”. The value for “QVQLVESGGGLVQAGGSLRLSCAASGSTFLYYAMGWYRQAPGKERELVATITDGGSTNYADSVKGRFTISRDNAKNTVYLQMNSLKPEDTAVYYCATDSYHYSYGYASLPEYDYWGQGTQVTVSS” was “low polyreactivity”. Consider “QVQLVESGGGLVQAGGSLRLSCAASGSTFLYYAMGWYRQAPGKERELVAVISWSGVSTYYADSVKGRFTISRDNAKNTVYLQMNSLKPEVTAVYYCNTGNHYIRTYGYWGQGTQVTVSS”, for which the “polyreactivity (PSR sort gate)” value is listed as “low polyreactivity”.

Take “QVQLVESGGGLVQAGGSLRLSCAASGSTFNEYVMGWYRHAPGKERELVAAITGGGGRTYYADSVKGRFTISRDNAKNTVYLQMNSLKPEDTAVYYCAKRYLFVTYWGFFRYDYWGQGTQVTVSS”: the “polyreactivity (PSR sort gate)” value is “low polyreactivity”.

For the sequence “QVQLVESGGGLVQAGGSLRLSCAASGSTFNEYVMGWYRQAPGKERELVAAITGGGGRTYYADSVKGRFTISRDNAKITVYLQMNSQKPEDTAFYDCAKRYLYGTYWGFFRYDYWGQGTQVTVSS”, the “polyreactivity (PSR sort gate)” value was “low polyreactivity”.

As for “QVQLVESGGGLVQAGGSLRLSCAASGSTFNFYAMGWYRQAPGKEREFVAAITSSGDSTYYADSVKGRFTISRDHAKTTVYLQMNSLKPEDTAVYYCAARLRWRYSYDYWGQGTQVTVSS”, the “polyreactivity (PSR sort gate)” value was “high polyreactivity”. The entry for “QVQLVESGGGLVQAGGSLRLSCAASGSTFNGNAMGWYRQAPGKERELVARISFDGTSTYYADSVKGRFTISRDNAKNTVYLQMNSLKPEDTAVDYCNVLFPRDHGFPGYGYWGQGTQVTVSS” is “low polyreactivity”.

As to “QVQLVESGGGLVQAGGSLRLSCAASGSTFNGYAIGWYRQAPGKERELVAAITWSGDSTYYADSVKGRFTISRDNAKNTVYLQMNSLKPEDTAVYYCAADDVKWDYDYWGQGTQVTVSS”, the “polyreactivity (PSR sort gate)” value is on record as “low polyreactivity”. The value for “QVQLVESGGGLVQAGGSLRLSCAASGSTFNGYAMGWYRQAPGKERELVAAINWTGDSTYYADSVKGRFTISRDNAKNTVYLQMNSLKPEDTAVYYCAAIRRQKGLWDYYYWGQGTQVTVSS” was “low polyreactivity”; that for “QVQLVESGGGLVQAGGSLRLSCAASGSTFNGYTMGWYRQAPGKERELVAAISKSGGRTYYADSVKGRFTISRDNAKNTVYLQMNSLKPEDTAVYYCAAHFRALGIYYTYDYWGQGTQVTVSS” was “high polyreactivity”. The entry for “QVQLVESGGGLVQAGGSLRLSCAASGSTFNGYTMGWYRQAPGKERELVAAITWSGGRTYYADSVKGRFTISRDNAKNTVYLQMNSLKPEDTAVYYCAAKLRSRYDYWGQGTQVTVSS” is “high polyreactivity”; for “QVQLVESGGGLVQAGGSLRLSCAASGSTFNGYVMGWYRQAPGKERELVAAISRSGGSTYYADSVKGRFTISRDNAKNTVYLQMNSLKPEDTAVYYCAVQRKSSKRAFRYGYWGQGTQVTVSS” it is “high polyreactivity”. The entry for “QVQLVESGGGLVQAGGSLRLSCAASGSTFNKYTMGWYRQAPGKERELVASISSDGSTNYADSVKGRFTISRDNAKNTVYLQMNSLKPEDTAVYYCAADEGTGQASLSSNLYDYWGQGTQVTVSS” is “low polyreactivity”; for “QVQLVESGGGLVQAGGSLRLSCAASGSTFNNNAMGWYRQAPGKERELVAAISYTGGSTYYADSVKGRFTISRDIAKYTVYLQMNSLKPEDSAVYYCARRQARKFYYWGQGTQVTVSS” it is “high polyreactivity”.

For “QVQLVESGGGLVQAGGSLRLSCAASGSTFNNYAMGWYSQAPGKERELVAAITRGGGSTHYADSVKGRFTISRDNAKKTVYFQMNCRKPEDTAVYYCAVAGFDRGQYVRYYYWGQGTQVTVSS”, the “polyreactivity (PSR sort gate)” value is reported as “low polyreactivity”. Take “QVQLVESGGGLVQAGGSLRLSCAASGSTFNRTPMGWYRQAPGKERELVAGISAGGRTYYTDSVKGRFTISRDNAKNTVYLLMNSLKPEDTAVYDCGTTSWWRCDLHTYLLTHYDYWGQGSQVTVSS”: the “polyreactivity (PSR sort gate)” value is reported as “low polyreactivity”. Take “QVQLVESGGGLVQAGGSLRLSCAASGSTFNRYAMGWYRPAPGKDRELVAAISASGGSTYYADSVKGRFRISRDNAKNTVYLQMNSLKPEDTAVYYCATLHYVGQEHDYWGQGTQVTVSS”: the “polyreactivity (PSR sort gate)” value is reported as “low polyreactivity”. For “QVQLVESGGGLVQAGGSLRLSCAASGSTFNRYAMGWYRQAPGKERELVAAITSTGGTNYADSVKGRFTISLDNAKNTVYLQMYSLKPEDTAVYYCAKRWLRWRSNYWGQGTQVTVSS”, the “polyreactivity (PSR sort gate)” value is reported as “high polyreactivity”. On to “QVQLVESGGGLVQAGGSLRLSCAASGSTFNSYTMGWSRQAPGEERELVAAITWSGGRTYYADSVKGRFTISRDNAKNTVYLQMNSLKPEATAVYYCAKDRVGEMYYWGQGTQVTVSS”, for which the “polyreactivity (PSR sort gate)” value is “low polyreactivity”. The value for “QVQLVESGGGLVQAGGSLRLSCAASGSTFNSYVMGWYRQAPGQERELVAAITWSGGRTYYADSVKGRFTISRDNAKNTVYLQMNSLKPEDTAVYYCARKKRRGRDWGYDYWGQGTQVTVSS” was “high polyreactivity”; that for “QVQLVESGGGLVQAGGSLRLSCAASGSTFNTNAMAWYRHAPGKERELVAAISWSSTRTYYADSVKGRFTISRDNAKNTVYLQMNSLKPEDTAVYYCAAATYQSRYFQRFDYWGQGTQVTVSS” was “high polyreactivity”. “QVQLVESGGGLVQAGGSLRLSCAASGSTFNTNTMGWYRQAPGKERELVAAISQSGTRTYYANSVKGRFTISRDNAKYTVYFQMNSLKPEDTAVYYCSADRQRYTSSSRKGLGYWGQGTQVTVSS”: the “polyreactivity (PSR sort gate)” value was “high polyreactivity”. The value for “QVQLVESGGGLVQAGGSLRLSCAASGSTFNVYSMGWYRQAPGKERELVAAIDTGDGSTFYADSVKGRFTISRDNAKNTVYLQMNSLKPEDTAVYYCAAEFWAIVDGDYCGQGTQVTVSS” was “high polyreactivity”; that for “QVQLVESGGGLVQAGGSLRLSCAASGSTFNWYAMGWYRQAPGKERELVASIRISGGSTYYADSVKGRFTISRDNAKNTVYLQMNSLKPEDTAVYYCNAKLFIRWFTYDYWGQGTQVTVSS” was “low polyreactivity”. With “QVQLVESGGGLVQAGGSLRLSCAASGSTFNYNAMGWYRPAPRKERELVAAITWNSGSTYYADSVKGRFTISRDNAKNTVYLQMNSLKQEDTAVYSCAADFTIPYWDAKFDYWGQGTQVTVSS”, the “polyreactivity (PSR sort gate)” value is given as “low polyreactivity”. The entry for “QVQLVESGGGLVQAGGSLRLSCAASGSTFNYNAMGWYRQAPGKERELVAAITYSGSSTYYADSVKGRFTISRDNAKNTVYLQMNSLKPEDTAVYYCAKDWYYLRRNYDYWGQGTQVTVSS” is “high polyreactivity”; for “QVQLVESGGGLVQAGGSLRLSCAASGSTFNYYAMGWYRQAPGKERELVAAISSRSSRTFYADSVKGRFTISRDNEKNTVYLQMNSLKPEDTAVYYCAVKKRAPDGDYWGQGTQVTVSS” it is “high polyreactivity”; for “QVQLVESGGGLVQAGGSLRLSCAASGSTFNYYDMGWYRQAPGKERELVATITSRGRSTYYADSVKGRFTISRDNAKNTVYLQMNSLKPVDTAVYYCAADWRAYIRRAAYSPFDYWGQGTQVTVSS” it is “low polyreactivity”.
